Laboratory results from patent US20260077065A1, “Compositions and Methods for Assessing Kinase Activity” (The Board of Trustees of the Leland Stanford Junior …, priority 2022, published 2026).

B1: bKiMBI: ERK blue KiMBI, WW F25A; SEQ ID NO:2 (protein)
chain: MVSKGEELIKENMRSKLYLEGSVNGHQFKCTHEGEGKPYEGKQTNRIKVVEGGPLPFAFDILATHFMYGSKVFIKYPADLPDYFKQSFPEGFTWERVMVFEDGGVLTATQDTSLQDGELIYNVKVRGVNFPANGPVMQKKTLGWEPSTETMYPADGGLEGRCDKALKLVGGGHLHVNFKTTYKSKKPVKMPGVHYVDRRLERIKEADNETYVEQYEHAVARYSNLGGGFTLEDFVGDWEQTAAYNLDQVLEQGGVSSLLQNLAVSVTPIQRIVRSGENALKIDIHVIIPYEGLSADQMAQIEEVFKVVYPVDDHHFKVILPYGTLVIDGVTPNMLNYFGRPYEGIAVFDGKKITVTGTLWNGNKIIDERLITPDGSMLFRVTINSIMADEEKLPPGWEKRMSRSSGRVYYANHITNASQWERPSGNSSSGGKNGQGEPARVTGYRLFEPDSPRTPVDKAKLSFQFP
B2: tKiMBI: ERK KiMBI with N-terminal tdTomato; SEQ ID NO:4 (protein)
chain: MVSKGEEVIKEFMRFKVRMEGSMNGHEFEIEGEGEGRPYEGTQTAKLKVTKGGPLPFAWDILSPQFMYGSKAYVKHPADIPDYKKLSFPEGFKWERVMNFEDGGLVTVTQDSSLQDGTLIYKVKMRGTNFPPDGPVMQKKTMGWEASTERLYPRDGVLKGEIHQALKLKDGGHYLVEFKTIYMAKKPVQLPGYYYVDTKLDITSHNEDYTIVEQYERSEGRHHLFLGHGTGSTGSGSSGTASSEDNNMAVIKEFMRFKVRMEGSMNGHEFEIEGEGEGRPYEGTQTAKLKVTKGGPLPFAWDILSPQFMYGSKAYVKHPADIPDYKKLSFPEGFKWERVMNFEDGGLVTVTQDSSLQDGTLIYKVKMRGTNFPPDGPVMQKKTMGWEASTERLYPRDGVLKGEIHQALKLKDGGHYLVEFKTIYMAKKPVQLPGYYYVDTKLDITSHNEDYTIVEQYERSEGRHHLFRLEDFVGDWEQTAAYNLDQVLEQGGVSSLLQNLAVSVTPIQRIVRSGENALKIDIHVIIPYEGLSADQMAQIEEVFKVVYPVDDHHFKVILPYGTLVIDGVTPNMLNYFGRPYEGIAVFDGKKITVTGTLWNGNKIIDERLITPDGSMLFRVTINSIMADEEKLPPGWEKRMSRSSGRVYYFNHITNASQWERPSGNSSSGGKNGQGEPARVTGYRLFEPDSPRTPVDKAKLSFQFP

How the values were obtained:
ERK [1] = experiment: bKiMBI bioluminescence in cancer cell lines U87, U87-EGFRvIII, SK-OV-3; assay type: cell-based, human; conditions: SK-OV-3 cells
Source text: Endogenous ERK activity in these cell lines appeared to be only partially activated, as co-expressing caMEK further suppressed basal KiMBI signal. […] This provides additional evidence that KiMBI responds positively to ERK inhibition, and argues against inhibitors directly binding KiMBIs to enhance NanoLuc assembly or catalysis. […] Positive KiMBI responses must actually overcome this tendency of kinase inhibitors to suppress bioluminescence.
In vitro cell-based bioluminescent assay. Cells were seeded into 96-well Lumitrac plate (Greiner Bio-One) at a density of 1.5-2×10^4 cells per well. After 24 h, cells were transiently transfected with KiMBI-expressing plasmids (5-10 ng per well) with or without caMEK-expressing plasmids (50 ng per well, empty pcDNA3.1 as negative control to keep total transfected DNA amount consistent) using lipofectamine 3000 (Invitrogen) following manufacturer's instructions. […] Then, for assaying luminescence, Nano-Glo live cell assay system (Promega) was used following manufacturer's instructions. Time-lapse live luminescence was recorded on Safire-2 microplate reader (Tecan) with 100 ms integration and one read per min for 20 min. Luminescence spectrum was measured on a Varioskan LUX multimode microplate reader (Thermo Scientific) using the spectral scanning protocol with 1 s integration for each wavelength at 400-680 nm (1 nm per data point).

ERK [2] = experiment: ERK KiMBI cell-based bioluminescent assay, HEK293A cells co-transfected with caMEK; conditions: FIG. 5d
Source text: To develop a luciferase reporter protein whose activity can be activated by ERK inhibition, it was hypothesized that NanoLuc luciferase catalytic activity could be modulated through large ERK-induced conformational changes. Created and tested were fusion proteins of various topologies (FIG. 2a) comprising the NanoLuc NanoBiT fragments, an ERK substrate peptide from Cdc25C^7, and a proline-directed WW phospho-binding domain (WW)^8 from Pin1. In particular, an arrangement was postulated in which binding of phosphorylated substrate (pSub) to WW would force the SmBiT fragment to adopt an unfavorable conformation for LgBiT complementation, would show low luminescence with active ERK and high luminescence with inhibited ERK (FIG. 2b). […]
In vitro cell-based bioluminescent assay. […] Then, for assaying luminescence, Nano-Glo live cell assay system (Promega) was used following manufacturer's instructions. Time-lapse live luminescence was recorded on Safire-2 microplate reader (Tecan) with 100 ms integration and one read per min for 20 min. Luminescence spectrum was measured on a Varioskan LUX multimode microplate reader (Thermo Scientific) using the spectral scanning protocol with 1 s integration for each wavelength at 400-680 nm (1 nm per data point).

Row | Molecule | bKiMBI response (brightness increase) after ERK inhibition (ERK [1]) [fold] | time to full induction of reporter by kinase inhibitor (ERK [2]) [h]
1 | B1 | ~2.5 | –
2 | B2 | – | ~1
